Measurements: patent US20040171074A1, “Structures of substrate binding pockets of SCF complexes” (MOUNT SINAI HOSPITAL, priority 2002, published 2004)
Non-standard residues stand in square brackets, D forms with d. pT = C[C@@H](OP(=O)(O)O)[C@H](N)C(=O)O

T1: Cdc4 (Saccharomyces cerevisiae, UniProt P07834)
T1 sequence (P07834 1-779): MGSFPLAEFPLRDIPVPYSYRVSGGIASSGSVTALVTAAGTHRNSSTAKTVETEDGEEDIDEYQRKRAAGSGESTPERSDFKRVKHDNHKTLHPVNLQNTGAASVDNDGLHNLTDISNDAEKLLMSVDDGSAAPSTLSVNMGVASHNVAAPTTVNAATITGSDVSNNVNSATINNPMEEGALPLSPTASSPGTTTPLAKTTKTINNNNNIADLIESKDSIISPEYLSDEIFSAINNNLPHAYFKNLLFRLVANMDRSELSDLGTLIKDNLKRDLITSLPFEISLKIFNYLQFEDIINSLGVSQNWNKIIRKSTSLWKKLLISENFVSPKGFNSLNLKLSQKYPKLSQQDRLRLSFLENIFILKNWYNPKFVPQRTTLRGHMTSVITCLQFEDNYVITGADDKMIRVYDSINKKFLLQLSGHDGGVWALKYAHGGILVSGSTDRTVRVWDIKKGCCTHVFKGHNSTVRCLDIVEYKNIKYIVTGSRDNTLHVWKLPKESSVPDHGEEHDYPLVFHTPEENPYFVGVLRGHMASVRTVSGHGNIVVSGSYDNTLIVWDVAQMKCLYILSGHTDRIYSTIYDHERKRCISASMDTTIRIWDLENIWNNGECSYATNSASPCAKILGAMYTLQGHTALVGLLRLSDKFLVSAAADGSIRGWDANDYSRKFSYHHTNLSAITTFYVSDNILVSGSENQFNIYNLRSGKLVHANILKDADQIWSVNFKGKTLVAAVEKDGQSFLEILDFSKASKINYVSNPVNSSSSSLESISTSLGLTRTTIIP

T2: phospho-Sic1 isoforms (Saccharomyces cerevisiae, UniProt P38634)
T2 construct: His6 (N); made in house; host or cells: bacteria (Sic1, Cdc4-GST-Skp1); insect cells (Cdc53-Rbx1)
T2 sequence (P38634 1-284): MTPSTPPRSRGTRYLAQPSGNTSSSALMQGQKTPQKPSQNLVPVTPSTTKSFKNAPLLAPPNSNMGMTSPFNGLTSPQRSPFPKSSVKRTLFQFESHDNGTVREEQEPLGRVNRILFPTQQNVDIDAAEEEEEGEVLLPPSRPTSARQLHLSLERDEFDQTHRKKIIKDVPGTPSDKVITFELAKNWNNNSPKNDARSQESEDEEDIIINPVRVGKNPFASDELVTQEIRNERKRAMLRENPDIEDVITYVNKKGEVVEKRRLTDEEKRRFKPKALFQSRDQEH

B1: WT: wild type yeast Cdc4 F-box protein (protein, UniProt P07834 1-779, looked up)
Cell division control protein …: T1 sequence (P07834 1-779)

Columns and labels:
Cdc4 = target: T1, Cdc4; settings: cyclin E derived nine-residue CPD phosphopeptide binding Cdc4 (Nash et al., 2001); cited from earlier work
phospho-Sic1 = experiment: P-Sic1 pull down: in vitro capture of phospho-Sic1 on immobilized wild type or mutant Cdc4-GST-Skp1, anti-Sic1 immunoblot; format: binding, yeast; settings: Sic1 phosphorylated with Cln2-Cdc28, captured onto GST-Skp1/Cdc4 resin, anti-Sic1 detection
Procedure, shortened: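 Bacterial His6-Sic1 phosphorylated by Cln2-Cdc28 from Sf9 cells; 0.5 μg phospho-Sic1 incubated with 1 μg immobilized wild-type or mutant Cdc4(263-744)-GST-Skp1 at 4° C for 1 h, washed four times. Bound Sic1 detected by anti-Sic1 immunoblot after SDS-PAGE.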

cdc4Δ strain = experiment: plasmid shuffle assay: complementation of a cdc4Δ strain by CDC4 alleles; format: cell-based, yeast; settings: viability of cdc4Δ strain on 5-FOA, 2 days at 30° C.
Procedure, shortened: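 Mutant CDC4 alleles on TRP1 CEN plasmids were shuffled into cdc4Δ strain MT 1259 carrying wild-type CDC4 on a URA3 plasmid, with growth on 5-FOA for 2 days at 30° C. Survivors were transformed with GAL1-SIC1 or phosphosite mutants and plated on glucose or galactose, 2 days at 30° C.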

[1] = tested on: cdc4Δ strain overexpressing SIC1; experiment: sensitivity to SIC1 dosage: GAL1-SIC1 overexpression in strains bearing CDC4 alleles; format: cell-based, yeast; settings: galactose, 2 days at 30° C.
Procedure, shortened: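 SIC1 dosage sensitivity: cdc4Δ strains carrying CDC4 mutant alleles (after plasmid shuffle) transformed with GAL1-SIC1 or GAL1-SIC1^T33V (also T45A), plated on glucose versus galactose medium for 2 days at 30 °C. Growth on galactose scored as tolerance of SIC1 overexpression.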

phospho-Sic1 isoforms [2] = experiment: IEF-2D gel analysis of Sic1 phospho-isoforms captured by wild type or mutant Cdc4-GST-Skp1; format: binding, yeast; settings: pool of Sic1 phosphorylated on 1 to 9 sites; listed as Wild type Cdc4
Experimental: Bacterially expressed His6-Sic1 was phosphorylated with Cln2-Cdc28 kinase purified from baculovirus infected Sf9 cells as described before (Nature paper). 1 ug of WT or mutant Cdc4-GST-Skp1, immoblized on GSH-Sepharose resin, was incubated with 0.5 ug phospho-Sic1 at 4 C for 1 h and washed 4 times. Captured complexes were resolved on SDS-PAGE and Sic1 visualized by anti-Sic1 Western blotting and ECL. For IEF-2D analysis, several Sic1 phosphorylation reactions were carried out for different time periods to obtain a spectrum of Sic1 that were phosphorylated at different numbers of its nine CDK sites. This pool of phospho-Sic1 (2.5 ug) was incubated with 5 μg of WT or mutant Cdc4-GST-Skp1 as described above. Different phosphorylation states of Sic1 were separated by denaturing isoelectric focusing (IEF)-2D gel electrophoresis and visualized by anti-Sic1 Western blotting and ECL. IEF was performed using pH 3-10NL Immobiline gel strips and IPGphore IEF system (Amersham pharmacia).
Cdc4 functional assays. CDC4 mutant alleles were assessed for complementation of a cdc4A strain in a plasmid shuffle assay (Nash et al., 2001). Sensitivity to SIC1 dosage was determined by transformation with pMT837 (GAL1-SIC1) or pMT767 (GAL1-SIC1^T33V) and plating on glucose medium or galactose medium. […]

phospho-Sic1 isoforms [3] = target: T2, phospho-Sic1 isoforms; experiment: in vitro ubiquitination of phospho-Sic1 isoforms by wild type or mutant SCFCdc4 complex; format: biochemical, yeast; settings: Cdc34, ubiquitin, ATP, 1 h at 30° C.

Row | Molecule | Kd (Cdc4) | P-Sic1 pull down (phospho-Sic1) | shuffle (cdc4Δ strain) | gal Sic1T33V ([1]; GAL1-SIC1 T33V (partially stabilized Sic1)) | gal Sic1T45A ([1]; GAL1-SIC1 T45A) | gal Sic1 wt ([1]; GAL1-SIC1 wild type) | Sic1 phospho-isoforms captured (number of phosphorylated sites) (phospho-Sic1 isoforms [2]) | conversion of Sic1 phosphorylated on four or five sites to oligo-ubiquitinated species (phospho-Sic1 isoforms [3])
1 | Ac-GLL[pT]PPQSG-NH2 [CPD phosphopeptide] | 1000 nM |  |  |  |  |  |  | 
2 | B1 |  | bind | alive | alive | dead | alive | six or more sites | unable
